The values below come from paper PMC9158661.

The target of the experiment is extracellular Cu/Zn superoxide dismutase from Onchocerca volvulus (OvEC-SOD) (Onchocerca volvulus). Briefly: SAXS; monodisperse solutions after affinity-tag cleavage, four concentrations 0.5-7.5 mg/ml; molecular mass from forward scattering with bovine serum albumin as reference; compared with the crystallographic dimer (CRYSOL, SREFLEX, GASBOR).

Take “extracellular Cu/Zn superoxide dismutase from Onchocerca volvulus (OvEC-SOD) (enzyme)”: the stoichiometry N was found to be 2.
